How the values were obtained:
[1] = target: carrier-free recombinant human TGF-β1 (human); assay: in vitro binding, RP-HPLC, TGF-β1 quantified by ALP-inducing activity of HPDL cells; purified amelogenin mixed with CF-hTGF-β1 or rh-latent TGF-β1, fractions from RP-HPLC tested in the ALP-HPDL system; ng per mg of amelogenin calculated from standard CF-hTGF-β1 (0.3 ng mL^-1), after dilution correction; details in the Supplementary Methods
[2] = target: TGF-β1 of the porcine enamel matrix (porcine (endogenous in porcine enamel)); assay: co-elution on RP-HPLC, TGF-β1 quantified by ALP-inducing activity of HPDL cells; amelogenins as purified from enamel (before the in vitro binding); ng of TGF-β1 per mg of amelogenin calculated from standard CF-hTGF-β1 (0.3 ng mL^-1), after dilution correction; complexes formed in vivo
Chain of TGF-β1 of the porcine enamel matrix (porcine (endogenous in porcine enamel)) (P07200 279-390): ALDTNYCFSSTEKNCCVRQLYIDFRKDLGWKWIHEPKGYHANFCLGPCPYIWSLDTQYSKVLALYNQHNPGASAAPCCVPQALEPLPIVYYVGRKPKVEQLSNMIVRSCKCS

Chain of carrier-free recombinant human TGF-β1 (human) (P01137 279-390): as the sequence (P07200 279-390) above

B1: P173 amelogenin (natural protein)
chain: MPLPPHPGHPGYINFSYEVLTPLKWYQNMIRHPYTSYGYEPMGGWLHHQIIPVVSQQTPQSHALQPHHHIPMVPAQQPGIPQQPMMPLPGQHSMTPTQHHQPNLPLPAQQPFQPQPVQPQPHQPLQPQSPMHPIQPLLPQPPLPPMFSMQSLLPDLPLEAWPATDKTKREEVD
Binder B1 has a bound TGF-β1, ng against 1 mg of amelogenin [1] of 1.18 ng and an original TGF-β1, ng against 1 mg of amelogenin [2] of 0.345 ng.
